Assays:
[1] = biological target: T1, human CD38-Fc (human, UniProt P28907 43-300, limits assumed); test: SPR (Biacore 3000), CD38-Fc immobilized, 1:1 fit, apparent
T1 construct: not shown: Fc part

[2] = biological target: T2, human CD38 on cells (human, UniProt P28907 1-300); test: FACS titration on CD38 expressing RPMI8226 cells
T2 construct: whole, on cells; The species is stated for the CHO-K1 transfectants; also called CHO-K1 cells recombinantly expressing human CD38; CD38 expressing RPMI8226 cell

B1: MOR03080 IgG1 (antibody, V domains shown)
VH: QVQLVESGGGLVQPGGSLRLSCAASGFTFSSYGMHWVRQAPGKGLEWVSNIYSDGSNTFYADSVKGRFTISRDNSKNTLYLQMNSLRAEDTAVYYCARNMYRWPFHYFFDYWGQGTLVTVSS
VL: DIELTQPPSVSVAPGQTARISCSGDNIGNKYVSWYQQKPGQAPVVVIYGDNNRPSGIPERFSGSNSGNTATLTISGTQAEDEADYYCSSYDSSYFVFGGGTKLTVLG
[1]
  Kd: 3 nM
[2]
  EC50: 0.4 nM

Source: patent US20100291078A1 (published 2010)
